Assay results taken from PMC6520838, “Structural Insights to the Heterotetrameric Interaction between the Vibrio parahaemolyticus PirA^vp and PirB^vp Toxins and Activation of the Cry-Like Pore-Forming Domain” (Toxins, 2019).

Experiments:
[1] = molecular target: T1, N-terminal tagged His10-PirA^vp (Vibrio parahaemolyticus); assay: ITC; iTC200; 1100 uM PirB^vp in the syringe injected into 110 uM PirA^vp in the cell, 19 injections of 2 uL, 25 °C; 30 mM Tris pH 8.0, 100 mM NaCl, 5% glycerol, 1 mM DTT; triplicate; settings: both partners purified
T1 chain: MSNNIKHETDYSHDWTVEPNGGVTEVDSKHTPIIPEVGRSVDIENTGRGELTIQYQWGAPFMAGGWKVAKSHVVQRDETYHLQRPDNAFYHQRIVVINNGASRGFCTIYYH

[2] = molecular target: T1, N-terminal tagged His10-PirA^vp; assay: SDS-PAGE densitometry of the complex collected from gel filtration; complex fractions eluted at 12.5 to 13 mL, serially diluted, SDS-PAGE; bands quantified with Image J against standard curves of PirA^vp and PirB^vp; settings: both partners purified

B1: C-terminal tagged His6-PirB^vp (natural protein)
chain: MTNEYVVTMSSLTEFNPNNARKSYLFDNYEVDPNYAFKAMVSFGLSNIPYAGGFLSTLWNIFWPNTPNEPDIENIWEQLRDRIQDLVDESIIDAINGILDSKIKETRDKIQDINETIENFGYAAAKDDYIGLVTHYLIGLEENFKRELDGDEWLGYAILPLLATTVSLQITYMACGLDYKDEFGFTDSDVHKLTRNIDKLYDDVSSYITELAAWADNDSYNNANQDNVYDEVMGARSWCTVHGFEHMLIWQKIKELKKVDVFVHSNLISYSPAVGFPSGNFNYIATGTEDEIPQPLKPNMFGERRNRIVKIESWNSIEIHYYNRVGRLKLTYENGEVVELGKAHKYDEHYQSIELNGAYIKYVDVIANGPEAIDRIVFHFSDDRTFVVGENSGKPSVRLQLEGHFICGMLADQEGSDKVAAFSVAYELFHPDEFGTEK
- Kd [1]: 7.33 ± 1.2 µM
- dH [1]: -25.7 ± 1.42 kcal/mol
- stoichiometry N [1]: 0.74 ± 0.01
- stoichiometry N [2]: 1.1 PirA^vp per PirB^vp
